These results are taken from patent US20170015742A1 (published 2017).

The target of test [1] is recombinant human VEGF165 (human, UniProt P15692 207-395). Kind of test: cell-based or functional assay.
Test [2] addresses recombinant human PDGF-BB (human, UniProt P01127 82-190). Kind of test: cell-based or functional assay.

recombinant human PDGF-BB, sequence (P01127 82-190 limits assumed): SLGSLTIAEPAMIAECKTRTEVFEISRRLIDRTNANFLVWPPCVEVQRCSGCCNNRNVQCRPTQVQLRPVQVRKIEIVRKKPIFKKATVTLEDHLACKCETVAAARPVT
recombinant human VEGF165, sequence (P15692 other isoform, or with tags, fused parts or gaps limits assumed): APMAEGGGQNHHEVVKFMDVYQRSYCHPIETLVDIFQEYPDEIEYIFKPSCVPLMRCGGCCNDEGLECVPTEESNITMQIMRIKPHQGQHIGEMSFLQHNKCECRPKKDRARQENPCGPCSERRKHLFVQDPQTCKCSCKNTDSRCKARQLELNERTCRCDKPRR

B1: 9E8.4_GS_9E10.1 (bispecific antibody, human IgG1, kappa, L234A L235A)
heavy: EVTLRESGPALVKPTQTLTLTCTFSGFSLSTYGMGVGWIRQPPGKALEWLANIWWDDDKYYNPSLKNRLTISKDTSKNQVVLTMTNMDPVDTATYYCARIESIGTTYSFDYWGQGTMVTVSSGGGGSGGGGSEIQLVQSGSELKKPGASVKVSCKASGYTFTNYGMYWVKQAPGQGLEYMGWIDTETGRPTYADDFKGRFVFSLDTSVSTAYLQISSLKAEDTAVYFCARWSGDTTGIRGPWFAYWGQGTLVTVSSASTKGPSVFPLAPSSKSTSGGTAALGCLVKDYFPEPVTVSWNSGALTSGVHTFPAVLQSSGLYSLSSVVTVPSSSLGTQTYICNVNHKPSNTKVDKKVEPKSCDKTHTCPPCPAPEAAGGPSVFLFPPKPKDTLMISRTPEVTCVVVDVSHEDPEVKFNWYVDGVEVHNAKTKPREEQYNSTYRVVSVLTVLHQDWLNGKEYKCKVSNKALPAPIEKTISKAKGQPREPQVYTLPPSREEMTKNQVSLTCLVKGFYPSDIAVEWESNGQPENNYKTTPPVLDSDGSFFLYSKLTVDKSRWQQGNVFSCSVMHEALHNAYTQKSLSLSPGK
light: EFVLTQSPGTLSLSPGERATLSCERSSGDIGDSYVSWYQQKPGQAPRLVIYADDQRPSGIPDRFSGSGSGTDFTLTISRLEPEDFAVYYCQSYDINIDIVFGGGTKVEIKGGSGGGGSGGDIRMTQSPSSLSASVGDRVTIECLASEDIYSDLAWYQQKPGKSPKLLIYNANGLQNGVPSRFSGSGSGTDYSLTISSLQPEDVATYFCQQYNYFPGTFGQGTKLEIKRTVAAPSVFIFPPSDEQLKSGTASVVCLLNNFYPREAKVQWKVDNALQSGNSQESVTEQDSKDSTYSLSSTLTLSKADYEKHKVYACEVTHQGLSSPVTKSFNRGEC
Turning to B1, the “Potency IC50 (nM) HMVEC-d hVEGF165” value in test [1] was determined as 0.073 nM. In addition, the “Potency IC50 (nM) NIH-3T3 hPDGF-BB” value in test [2] is 0.317 nM.

B2: 9E8.4_GS_9E10.6 (bispecific antibody, human IgG1, kappa, L234A L235A)
heavy: EVTLRESGPALVKPTQTLTLTCTFSGFSLSTYGMGVGWIRQPPGKALEWLANIWWDDDKYYNPSLKNRLTISKDTSKNQVVLTMTNMDPVDTATYYCARIESIGTTYSFDYWGQGTMVTVSSGGGGSGGGGSEVQLVQSGAEVKKPGSSVKVSCKASGYTFTNYGMYWVRQAPGQGLEWMGWIDTETGRPTYADDFKGRFTFTADKSTSTAYMELSSLRSEDTAVYYCARWSGDTTGIRGPWFAYWGQGTLVTVSSASTKGPSVFPLAPSSKSTSGGTAALGCLVKDYFPEPVTVSWNSGALTSGVHTFPAVLQSSGLYSLSSVVTVPSSSLGTQTYICNVNHKPSNTKVDKKVEPKSCDKTHTCPPCPAPEAAGGPSVFLFPPKPKDTLMISRTPEVTCVVVDVSHEDPEVKFNWYVDGVEVHNAKTKPREEQYNSTYRVVSVLTVLHQDWLNGKEYKCKVSNKALPAPIEKTISKAKGQPREPQVYTLPPSREEMTKNQVSLTCLVKGFYPSDIAVEWESNGQPENNYKTTPPVLDSDGSFFLYSKLTVDKSRWQQGNVFSCSVMHEALHNAYTQKSLSLSPGK
light: EFVLTQSPGTLSLSPGERATLSCERSSGDIGDSYVSWYQQKPGQAPRLVIYADDQRPSGIPDRFSGSGSGTDFTLTISRLEPEDFAVYYCQSYDINIDIVFGGGTKVEIKGGSGGGGSGGDIRMTQSPSSLSASVGDRVTITCLASEDIYSDLAWYQQKPGKSPKLLIYNANGLQNGVPSRFSGSGSGTDYTLTISSLQPEDVATYFCQQYNYFPGTFGQGTKLEIKRTVAAPSVFIFPPSDEQLKSGTASVVCLLNNFYPREAKVQWKVDNALQSGNSQESVTEQDSKDSTYSLSSTLTLSKADYEKHKVYACEVTHQGLSSPVTKSFNRGEC
Turning to B2, the “Potency IC50 (nM) HMVEC-d hVEGF165” value in test [1] was 0.132 nM. Moreover, the “Potency IC50 (nM) NIH-3T3 hPDGF-BB” value in test [2] was found to be 0.213 nM.

B3: CL-33675_GS_1E3.4 (bispecific antibody, human IgG1, kappa, L234A L235A)
heavy: EVTLRESGPALVKPTQTLTLTCTFSGFSLSTYGMGVGWIRQPPGKALEWLANIWWDDDKYYNPSLKNRLTISKDTSKNQVVLTMTNMDPVDTATYYCARIESSGPKYSFDYWGQGTMVTVSSGGGGSGGGGSEIQLVQSGSELKKPGASVKVSCKASGYPFTNSGMYWVKQAPGQGLEYMGWINTEAGKPTYADDFKGRFVFSLDTSVSTAYLQISSLKAEDTAVYFCARWGYISDNSYGWFDYWGQGTLVTVSSASTKGPSVFPLAPSSKSTSGGTAALGCLVKDYFPEPVTVSWNSGALTSGVHTFPAVLQSSGLYSLSSVVTVPSSSLGTQTYICNVNHKPSNTKVDKKVEPKSCDKTHTCPPCPAPEAAGGPSVFLFPPKPKDTLMISRTPEVTCVVVDVSHEDPEVKFNWYVDGVEVHNAKTKPREEQYNSTYRVVSVLTVLHQDWLNGKEYKCKVSNKALPAPIEKTISKAKGQPREPQVYTLPPSREEMTKNQVSLTCLVKGFYPSDIAVEWESNGQPENNYKTTPPVLDSDGSFFLYSKLTVDKSRWQQGNVFSCSVMHEALHNAYTQKSLSLSPGK
light: EIVLTQSPGTLSLSPGERATLSCRASSGSIWYSFVSWYQQKPGQAPRLLIYADDQRASGIPDRFSGSGSGTDFTLTISRLEPEDFAVYYCQSYGINIDVVFGGGTKVEIKGGSGGGGSGGATQLTQSPSSLSASVGDRVTISCRASEGVYSYMHWYQQKPGKQPKLLIYKASNLASGVPSRFSGSGSGTDFTLTISSLQPEDFATYFCHQNWNDPLTFGQGTKLEIKRTVAAPSVFIFPPSDEQLKSGTASVVCLLNNFYPREAKVQWKVDNALQSGNSQESVTEQDSKDSTYSLSSTLTLSKADYEKHKVYACEVTHQGLSSPVTKSFNRGEC
B3: the “Potency IC50 (nM) HMVEC-d hVEGF165” value in test [1] was 0.372 nM. In test [2], the “Potency IC50 (nM) NIH-3T3 hPDGF-BB” value worked out at 0.039 nM.

B4: 9E8.4_GS_1B10.1 (bispecific antibody, human IgG1, kappa, L234A L235A)
heavy: EVTLRESGPALVKPTQTLTLTCTFSGFSLSTYGMGVGWIRQPPGKALEWLANIWWDDDKYYNPSLKNRLTISKDTSKNQVVLTMTNMDPVDTATYYCARIESIGTTYSFDYWGQGTMVTVSSGGGGSGGGGSEVQLVESGGGLVQPGGSLRLSCAASGFSFSKYDMAWFRQAPGKGLEWVASITTSGVGTYYRDSVKGRFTVSRDNAKSTLYLQMNSLRAEDTAVYYCARGYGAMDAWGQGTTVTVSSASTKGPSVFPLAPSSKSTSGGTAALGCLVKDYFPEPVTVSWNSGALTSGVHTFPAVLQSSGLYSLSSVVTVPSSSLGTQTYICNVNHKPSNTKVDKKVEPKSCDKTHTCPPCPAPEAAGGPSVFLFPPKPKDTLMISRTPEVTCVVVDVSHEDPEVKFNWYVDGVEVHNAKTKPREEQYNSTYRVVSVLTVLHQDWLNGKEYKCKVSNKALPAPIEKTISKAKGQPREPQVYTLPPSREEMTKNQVSLTCLVKGFYPSDIAVEWESNGQPENNYKTTPPVLDSDGSFFLYSKLTVDKSRWQQGNVFSCSVMHEALHNAYTQKSLSLSPGK
light: EFVLTQSPGTLSLSPGERATLSCERSSGDIGDSYVSWYQQKPGQAPRLVIYADDQRPSGIPDRFSGSGSGTDFTLTISRLEPEDFAVYYCQSYDINIDIVFGGGTKVEIKGGSGGGGSGGDIQMTQSPSSLSASVGDRVTITCKASQDIDDYLSWYQQKPGKSPKLVIYAATRLADGVPSRFSGSGSGTDYTLTISSLQPEDFATYYCLQSSSTPWTFGGGTKVEIKRTVAAPSVFIFPPSDEQLKSGTASVVCLLNNFYPREAKVQWKVDNALQSGNSQESVTEQDSKDSTYSLSSTLTLSKADYEKHKVYACEVTHQGLSSPVTKSFNRGEC
As for B4, the “Potency IC50 (nM) HMVEC-d hVEGF165” value in test [1] worked out at 0.391 nM. Further, in test [2], the “Potency IC50 (nM) NIH-3T3 hPDGF-BB” value turned out to be 0.109 nM.
